The chains are these.
B1: TNF receptor-associated factor 4 (Homo sapiens), Q9BUZ4 (parent)
chain: MPGFDYKFLEKPKRRLLCPLCGKPMREPVQVSTCGHRFCDTCLQEFLSEGVFKCPEDQLPLDYAKIYPDPELEVQVLGLPIRCIHSEEGCRWSGPLRHLQGHLNTCSFNVIPCPNRCPMKLSRRDLPAHLQHDCPKRRLKCEFCGCDFSGEAYESHEGMCPQESVYCENKCGARMMRRLLAQHATSECPKRTQPCTYCTKEFVFDTIQSHQYQCPRLPVACPNQCGVGTVAREDLPGHLKDSCNTALVLCPFKDSGCKHRCPKLAMARHVEESVKPHLAMMCALVSRQRQELQELRRELEELSVGSDGVLIWKIGSYGRRLQEAKAKPNLECFSPAFYTHKYGYKLQVSAFLNGNGSGEGTHLSLYIRVLPGAFDNLLEWPFARRVTFSLLDQSDPGLAKPQHVTETFHPDPNWKNFQKPGTWRGSLDESSLGFGYPKFISHQDIRKRNYVRDDAVFIRAAVELPRKILS

In the assay the parent is B1. The conditions noted are these: with SMURF1, Q9HCE7-2.
SMURF1, Q9HCE7-2, sequence (Q9HCE7 other isoform, or with tags, fused parts or gaps): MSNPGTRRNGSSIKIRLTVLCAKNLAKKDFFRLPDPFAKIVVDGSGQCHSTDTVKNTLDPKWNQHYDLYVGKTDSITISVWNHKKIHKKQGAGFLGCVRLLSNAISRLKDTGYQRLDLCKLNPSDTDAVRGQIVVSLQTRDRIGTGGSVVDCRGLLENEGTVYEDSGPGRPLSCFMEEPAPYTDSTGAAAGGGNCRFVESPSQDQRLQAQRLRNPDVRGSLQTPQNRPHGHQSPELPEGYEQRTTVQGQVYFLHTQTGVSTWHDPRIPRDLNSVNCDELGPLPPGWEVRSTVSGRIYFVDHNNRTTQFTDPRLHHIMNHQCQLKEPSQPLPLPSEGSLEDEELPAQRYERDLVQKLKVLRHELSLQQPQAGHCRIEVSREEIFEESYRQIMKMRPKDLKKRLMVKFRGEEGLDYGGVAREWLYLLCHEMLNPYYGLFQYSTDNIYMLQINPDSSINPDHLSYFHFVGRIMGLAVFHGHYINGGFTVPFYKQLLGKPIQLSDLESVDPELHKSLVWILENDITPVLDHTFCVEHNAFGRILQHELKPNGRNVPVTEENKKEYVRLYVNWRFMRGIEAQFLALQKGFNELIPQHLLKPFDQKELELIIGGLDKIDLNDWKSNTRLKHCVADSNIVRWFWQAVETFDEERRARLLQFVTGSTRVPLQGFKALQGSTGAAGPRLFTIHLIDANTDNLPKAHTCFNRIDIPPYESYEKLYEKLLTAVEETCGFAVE
Regarding MPGFDYKFLEKPKRRLLCPLCGKPMREPVQVSTCGHRFCDTCLQEFLSEGVFKCPEDQLAAAAAKIYPDPELEVQVLGLPIRCIHSEEGCRWSGPLRHLQGHLNTCSFNVIPCPNRCPMKLSRRDLPAHLQHDCPKRRLKCEFCGCDFSGEAYESHEGMCPQESVYCENKCGARMMRRLLAQHATSECPKRTQAAAACTKEFVFDTIQSHQYQCPRLPVACPNQCGVGTVAREDLPGHLKDSCNTALVLCPFKDSGCKHRCPKLAMARHVEESVKPHLAMMCALVSRQRQELQELRRELEELSVGSDGVLIWKIGSYGRRLQEAKAKPNLECFSAAAATHKYGYKLQVSAFLNGNGSGEGTHLSLYIRVLPGAFDNLLEWPFARRVTFSLLDQSDPGLAKPQHVTETFHPDPNWKNFQKPGTWRGSLDESSLGFGYPKFISHQDIRKRNYVRDDAVFIRAAVELPRKILS [P60A;L61A;D62A;Y63A;P194A;C195A;T196A;Y197A;P335A;F337A;Y338A], the “effect of a mutation on the interaction” value was “disrupting interaction”.

Source of the values: IntAct's records for PubMed 19937093.
